{"source": "patent US6521741", "about": "(FRANK KOENTGEN, dated 2003)", "target": "T1, streptavidin (UniProt P22629 37-163, limits assumed)", "T1 construct": "Immobilised on column material; also called streptavidin column; streptavidin matrix", "T1 sequence (P22629 37-163 limits assumed)": "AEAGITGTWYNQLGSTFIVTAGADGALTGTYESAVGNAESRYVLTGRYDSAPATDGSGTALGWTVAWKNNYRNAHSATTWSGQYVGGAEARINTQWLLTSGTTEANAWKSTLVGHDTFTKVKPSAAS", "experiment": "streptavidin column pull-down, SDS gel", "text": "FIG. 11 is a photographic representation of LHL purified via kappa-loaded streptavidin column as shown on a silver stained 20% w/v polyacrylamide SDS PHAST-gel. LHL= LHL alone plus streptavidin matrix; LHL-kappa=LHL purified on the kappa-loaded streptavidin matrix; kappa=kappa alone bound to streptavidin matrix."}
{"binder": "LHL (designed binder, Expressed in E. coli from pASK75; LHL carries no strep-tag; also called growth factor LHL) APKDNTEEVTIKANLIFANGSTQTAEFKGTFEKATSEAYAYADTLKKDNGEYTVDVADKGYTLNIKFAGKEATNRNTDGSTDYGILQINSRWGGLTLKEEVTIKANLIFANGSTQTAEFKGTFEKATSEAYAYADTLKKDNGEYTVDVADKGYTLNIKFAG", "values": [{"measurement": "binding result", "value": "no binding"}]}
